Source: article doi:10.1101/405654

target: GMPCPP-stabilised, rhodamine labelled microtubules (porcine brain tubulin) (porcine (purified from porcine brain)) (UniProt P02550); test: single-molecule TIRF microscopy
Sequence of UniProt P02550 (P02550 whole entry): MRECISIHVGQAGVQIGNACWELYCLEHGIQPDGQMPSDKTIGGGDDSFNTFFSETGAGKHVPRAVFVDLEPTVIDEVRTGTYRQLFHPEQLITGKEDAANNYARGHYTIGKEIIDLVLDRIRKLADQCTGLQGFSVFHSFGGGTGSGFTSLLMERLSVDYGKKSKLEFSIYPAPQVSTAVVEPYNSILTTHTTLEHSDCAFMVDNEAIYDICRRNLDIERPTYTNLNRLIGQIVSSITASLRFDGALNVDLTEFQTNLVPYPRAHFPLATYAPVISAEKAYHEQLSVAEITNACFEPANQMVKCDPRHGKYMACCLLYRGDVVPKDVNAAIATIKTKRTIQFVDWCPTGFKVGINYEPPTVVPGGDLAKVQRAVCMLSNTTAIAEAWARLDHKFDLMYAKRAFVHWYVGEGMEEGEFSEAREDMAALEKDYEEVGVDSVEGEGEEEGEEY

First: Rat kinesin-1 rKin430-GFP-h6 G262K (domain or fragment)
Second: Rat kinesin-1 rKin430-GFP-h6 S266R (domain or fragment)
The microtubule end residence time of the first is lower: 0.74 s for the first, 1.39 s for the second.

Compared with “Rat kinesin-1 rKin430-GFP-h6 S266A (domain or fragment)”, “Rat kinesin-1 rKin430-GFP-h6 N263E (domain or fragment)” is higher in microtubule end residence time: 0.8 s for the first, 0.98 s for the second.

Going from “Rat kinesin-1 rKin430-GFP-h6 triple mutant (G262K, N263E, S266R) (domain or fragment)” to “Rat kinesin-1 rKin430-GFP-h6, wild type (domain or fragment)”, the microtubule end residence time falls from 0.97 s to 0.35 s.
